Patent US9096835B2, “DNA polymerase” (Medical Research Council, priority 2003, dated 2015)

Columns and labels:
[1] = test system: 215 bp fragment from the cytochrome B gene in the mitochondrial genome; assay: Ancient DNA PCR, cave hyena samples; format: biochemical, cave hyena (Crocuta spelaea); settings: on two separate occasions
Description: FIG. 12. Several samples of cave hyena (Crocuta spelaea) were extracted and analysed. The seven samples were from Teufelslucke cave (Austria, 40 000 years old), Aufhausener Höhle (Germany, no date determined (2 samples)); Irpfelhöhle (Germany, no date determined); Kiskevelyi ([…] 48 500 years old); Miskolc III (Hungary, 44 000 years old); Mala ladnica (Slovakia, no date determined). The target was a 215 bp fragment from the cytochrome B gene in the mitochondrial genome. The amplification was only successful in the presence of sspDNA.
Several samples of cave hyena (Crocuta spelaea) were extracted and analysed. […] These samples were chosen to test the efficacy of the expanded substrate spectrum polymerases.
Therefore, M1 was blended with a commercial preparation of Taq (SuperTaq (HT biotechnology Ltd)) in a ratio of 1 unit to 10 and compared to Taq in the absence of M1. It was hoped that if M1 could bypass the blocking lesions, then the wild type Taq would amplify the resulting translesion synthesis product.

[2] = test system: template containing 5-Nitroindole; assay: Primer extension opposite 5-nitroindole; format: biochemical; settings: for ability to replicate 5NI: clones from five rounds of selection
Method: 50 pmol of ^32P-labelled primer and 100 pmol of template in a volume of 44 μl were annealed in 1× Taq buffer. 4D11 or 5D4 polymerase as cell lysate (6 μl) was added and reactions were incubated at 50° C. for 15 minutes followed by addition of one dNTP (1 μl in total volume of 50 μl, final dNTP concentration 40 μM). 8 μl samples were taken at various time points and added to 8 μl stop solution (7M urea, 100 mM EDTA containing xylene cyanol F). At the end of the time course the remaining 3 dNTPs were added (final concentration each dNTP 40 μM) and reactions incubated at 50° C. for a further 30 minutes. Reaction samples were electrophoretically separated using 20% polyacrylamide gels at 25 W for 4 hours. The resultant gels were dried and scanned using a phosphorimager (Molecular Dynamics). Data was processed using the program ImageQuant (Molecular Dynamics).

[3] = Incorporation and extension of 5-nitroindole-5′-triphosphate; format: biochemical; settings: 50° C., identical conditions as 4D11 and 5D4; data not shown
Method: 50 pmol of ^32P-labelled primer and 100 pmol of template in a volume of 44 μl were annealed in 1× Taq buffer. 4D11 or 5D4 polymerase as cell lysate (6 μl) was added and reactions were incubated at 50° C. for 15 minutes followed by addition of d5NITP (1 μl in total volume of 50 µL final dNTP concentration 40 μM). 8 μl samples were taken at various time points and added to 8 μl stop solution (7M urea, 100 mM EDTA containing xylene cyanol F). At the end of the time course the 4 native dNTPs were added (final concentration each dNTP 40 μM) and reactions incubated at 50° C. for a further 30 minutes.

Molecule: SuperTaq: commercial preparation of Taq (HT biotechnology Ltd)
- amplification of previously un-amplifiable cave hyena DNA [1]: did not

B1: 5D4: round 5 clone selected for replication of 5NI; SEQ ID NO: 109 (protein)
chain: MAMLPLFEPKGRVLLVDGHHLAYRTFFALKGLTTSRGEPVQAVYGFAKSLLKALKEDGYKAIFVVFDAKAPSFRHEAHEAYKAGRAPSPEDFPRQLALIKELVDLLGFTRLEVQGYEADDVLATLAKKAEKEGYEVRILTADRDLYQLVSDRVAVLHPEGHLITPEWLWEKYGLRPEQWVDFRALVGDPSDNLPGVKGIGEKTALKLLKEWGSLENLLKNLDRLKPAIREKILAHMDDLKLSWDLAKVRTDLPLEVDFAKRRESDRERLRAFLERLEFGSLLHEFGLLESPKALEEAPWPPPVGAFVGFVLSRKEPMWADLLALAAARGGRVHRAPEPYKALRDLKEARGLLAKDLSVLALREGLGLPPGDDPMLLAYLLDPSNTTPEVVARRYGGEWTEEAGERAALSERLFANLWGRLEGEGRLLWLYRGVERPLSAVLAHMEATGVRLDVAYLRALSLEVAEEIARLEAEVFRLAGHPFNLNSRDQLERVLFDELGLPAIGKTEKTGKRSTSAAVLEALREAHPIVEKILQYRELTKLKSTYIDPLPDLIHPRTGRLHTRFNQTATATGRLSSSDPNLQNIPVRTPLGQRIRRAFIAEGGWLLVVLDYSQMELRVLAHLSGDENLIRVFQEGRDIHTETASWMFGVPREAVDPLMRRAAKTINFGVLYGMSAHRLSQELAIPYEEAQAFIERYFQSFPKVRAWIEKTLEEGRKRGYVETLFGRRRYVPDLNARVKSVREAAERMAFNMPVQGTAADLTKLAMVKLFPRLEETGARMLLQVHDELVLEAPKERAEAVARLAKEVMEGVYPLAVPLEVEVGIGEDWLSAKG
modifications: Mutant Taq polymerase
- ability to replicate 5NI [2]: greatly increased ability to replicate 5NI

B2: 4D11: round 4 clone selected for replication of 5NI; SEQ ID NO: 107 (protein)
chain: MAMLPLFEPKGRVLLVDGHHLAYRTFFALKGLTTSRGEPVQAVYGFAKSLLKALKEDGYKAVFVVFDAKAPSFRHEAYEAYKAGRAPTPEDFPRQLALIKELVDLLGFTRLEVQGYEADDVLATLAKKAEKEGYEVRILTADRDLYQLVSDRVAVLHPEGHLITPEWLWEKYGLRPEQWVDFRALVGDPSDNLPGIKGIGEKTALKLLKEWGSLENLLKNLDRVKPENVREKIKAHLEDLRLSLELSRVRTDLPLEVDFAKRREPDRERLRAFLERLEFGSLLHEFGLLESPKALEEAPWPPPEGAFVGFVLSRKEPMWADLLALAAAKGGRVHRAPEPYKALRDLKEARGLLAKDLSVLALREGLGLPPGDDPMLLAYLLDPSNTTPEGVARRYGGEWTEEAGERAALSERLFANLWGRLEGEERLLWLYREVERPLSAVLAHMEATGVRLDVAYLRALSLEVAEEIARLEAEVFRLAGHPFNLNSRDQLERVLFDELGLPAIGKTEKTGKRSTSAAVLEALREAHPIVEKILQYRELTKLKSTYIDPLPDLIHPRTGRLHTRFNQTATATGRLSSSDPNLQNIPVRTPLGQRIRRAFIAEGGWLLVVLDYSQMELRVLAHLSGDENLIRVFQEGRDIHTETASWMFGVPREAVDPLMRRAAKTINFGVLYGMSAHRLSQELAIPYEEAQAFIERYFQSFPKVRAWIEKTLEEGRRRGYVETLFGRRRYVPDLEARVKSVREAAERMAFNMPVQGTAADLMKLAMVKLFPRLEETGARMLLQVHDELVLEAPKERAEAVARLAKEVMEGVYPLAVPLEVEVGIGEDWLSAKE
modifications: Mutant Taq polymerase
- ability to replicate 5NI [2]: greatly increased ability to replicate 5NI

B3: Tth: Thermus thermophilus (Tth) wild-type polymerase (protein, UniProt P52028 1-834, looked up)
DNA polymerase I, thermostable: MEAMLPLFEPKGRVLLVDGHHLAYRTFFALKGLTTSRGEPVQAVYGFAKSLLKALKEDGYKAVFVVFDAKAPSFRHEAYEAYKAGRAPTPEDFPRQLALIKELVDLLGFTRLEVPGYEADDVLATLAKKAEKEGYEVRILTADRDLYQLVSDRVAVLHPEGHLITPEWLWEKYGLRPEQWVDFRALVGDPSDNLPGVKGIGEKTALKLLKEWGSLENLLKNLDRVKPENVREKIKAHLEDLRLSLELSRVRTDLPLEVDLAQGREPDREGLRAFLERLEFGSLLHEFGLLEAPAPLEEAPWPPPEGAFVGFVLSRPEPMWAELKALAACRDGRVHRAADPLAGLKDLKEVRGLLAKDLAVLASREGLDLVPGDDPMLLAYLLDPSNTTPEGVARRYGGEWTEDAAHRALLSERLHRNLLKRLEGEEKLLWLYHEVEKPLSRVLAHMEATGVRLDVAYLQALSLELAEEIRRLEEEVFRLAGHPFNLNSRDQLERVLFDELRLPALGKTQKTGKRSTSAAVLEALREAHPIVEKILQHRELTKLKNTYVDPLPSLVHPRTGRLHTRFNQTATATGRLSSSDPNLQNIPVRTPLGQRIRRAFVAEAGWALVALDYSQIELRVLAHLSGDENLIRVFQEGKDIHTQTASWMFGVPPEAVDPLMRRAAKTVNFGVLYGMSAHRLSQELAIPYEEAVAFIERYFQSFPKVRAWIEKTLEEGRKRGYVETLFGRRRYVPDLNARVKSVREAAERMAFNMPVQGTAADLMKLAMVKLFPRLREMGARMLLQVHDELLLEAPQARAEEVAALAKEAMEKAYPLAVPLEVEVGMGEDWLSAKG
- incorporation and extension of d5NITP [3]: almost undetectable extension reactions
- extension opposite 5-nitroindole ([2]; 50° C., cell lysate, identical conditions as 4D11 and 5D4, data not shown): almost undetectable extension reactions
